Read-outs that look alike come from different tables or passages of the source.
Experiments:
[1] = target: T1, human CD16b (NA1), full length, on FlpinCHO cells (human, UniProt O75015 17-200); assay: FACS on FlpinCHO cells
T1 construct: also called FlpinCHO-human CD16b (NA1)
T1 chain: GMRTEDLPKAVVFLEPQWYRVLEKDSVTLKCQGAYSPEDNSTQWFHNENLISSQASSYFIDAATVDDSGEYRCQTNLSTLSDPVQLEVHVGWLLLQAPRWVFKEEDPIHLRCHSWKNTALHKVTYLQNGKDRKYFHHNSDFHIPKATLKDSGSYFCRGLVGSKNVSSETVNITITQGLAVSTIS
Method in brief: (§1)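 Trypsin-detached FlpinCHO cells expressing full-length CD16b were blocked in PBS+2% BSA and incubated on ice for 1 hour with antibody at varying concentrations. Binding read by flow cytometry as MFI; EC50 from curve fitting.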

[2] = target: T2, human CD16b (NA2), full length, on FlpinCHO cells (human, UniProt O75015 17-200); assay: FACS on FlpinCHO cells
T2 construct: also called FlpinCHO-human CD16b (NA2)
T2 chain: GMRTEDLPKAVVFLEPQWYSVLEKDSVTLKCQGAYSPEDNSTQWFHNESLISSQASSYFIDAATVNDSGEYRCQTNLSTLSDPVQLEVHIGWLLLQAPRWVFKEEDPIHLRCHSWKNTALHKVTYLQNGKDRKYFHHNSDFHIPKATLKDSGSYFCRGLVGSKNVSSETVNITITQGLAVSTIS
Method in brief: as §1

[3] = target: T3, human CD16a (158V), full length, on cells (human, UniProt P08637 17-254); assay: FACS on FlpinCHO cells
T3 construct: also used as target for the bought Jurkat-NFAT reporter line stably expressing human CD16a (158V); also called FlpinCHO-human CD16a (158V); FlpinCHO-CD16a (158V)

[4] = target: human CD16a (158F), full length, on FlpinCHO cells (human, UniProt P08637 17-254); assay: FACS on FlpinCHO cells
[5] = target: T3, human CD16a (158V), full length, on …; assay: cell-based or functional assay
[6] = target: T4, cynomolgus monkey CD16, full length, on FlpinCHO cells (cynomolgus monkey, UniProt Q8SPW2 17-254); assay: FACS on FlpinCHO cells
T4 construct: also called FlpinCHO-cyno CD16; Flipin CHO-cyno CD16
Method in brief: (§2)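 FlpinCHO cells expressing full-length cynomolgus CD16, blocked in PBS/2% BSA at 2×10⁶ cells/ml, incubated with antibody at various concentrations 1 h on ice. Flow cytometry MFI fitted to give EC50.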

[7] = target: T5, Human CD16b (SH)-his (human); assay: SPR (Biacore), antibody captured on Protein A
T5 construct: entry holds ECD, linker, His tag and AVI tag
T5 chain: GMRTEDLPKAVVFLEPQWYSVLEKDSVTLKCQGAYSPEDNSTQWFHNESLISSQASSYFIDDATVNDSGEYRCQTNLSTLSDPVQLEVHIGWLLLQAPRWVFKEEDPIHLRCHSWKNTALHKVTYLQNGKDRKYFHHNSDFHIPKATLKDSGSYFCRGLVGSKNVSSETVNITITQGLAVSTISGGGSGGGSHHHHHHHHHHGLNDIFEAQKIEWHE
Method in brief: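 Protein A–captured antibody was probed with CD16-his ECD in HBS-EP+ at 25 °C: five 2-fold dilutions from 200 nM, 240 s at 30 μL/min, dissociation up to 600 s. Glycine pH 1.5 regenerated the chip. Apparent KD came from a double-referenced 1:1 Langmuir fit.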

[8] = target: T4, cynomolgus monkey CD16, full length, on …; assay: FACS on FlpinCHO cells; remark: listed apart in the source
Method in brief: as §2

T4 sequence (Q8SPW2 other isoform, or with tags, fused parts or gaps limits assumed): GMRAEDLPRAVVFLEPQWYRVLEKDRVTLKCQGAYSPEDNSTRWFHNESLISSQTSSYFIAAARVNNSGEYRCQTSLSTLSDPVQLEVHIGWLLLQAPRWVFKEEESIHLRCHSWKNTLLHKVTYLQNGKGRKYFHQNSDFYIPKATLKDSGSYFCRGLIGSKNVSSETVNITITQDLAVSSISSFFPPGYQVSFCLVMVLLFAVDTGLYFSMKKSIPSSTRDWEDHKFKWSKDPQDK
T3 sequence (P08637 17-254 F176V limits assumed): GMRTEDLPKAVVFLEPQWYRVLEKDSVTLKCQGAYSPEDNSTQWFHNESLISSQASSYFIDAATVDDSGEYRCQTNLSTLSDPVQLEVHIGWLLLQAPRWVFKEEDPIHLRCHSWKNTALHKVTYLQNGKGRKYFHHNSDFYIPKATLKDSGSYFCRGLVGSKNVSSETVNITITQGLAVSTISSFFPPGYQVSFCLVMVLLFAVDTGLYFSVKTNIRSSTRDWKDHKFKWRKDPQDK
human CD16a (158F), full length, on FlpinCHO cells, sequence (P08637 17-254 limits assumed): as the sequence (P08637 17-254 F176V limits assumed) above, with V160F counted along it

B1: VHH06 VHH-Fc antibody (Fc fusion)
chain: EVQLVESGGGLVQAGGSLRLSCVASGSTWTTYAVRWYRQAPGKQREWVAFISVDGSTNYPDSVKGRFIVSRDNAKNTVYLQMNSLKPEDTADYICRVGGQYWGQGTQVTVSSEPKSSDKTHTCPPCPAPEFEGGPSVFLFPPKPKDTLMISRTPEVTCVVVAVSHEDPEVKFNWYVDGVEVHNAKTKPREEQYNSTYRVVSVLTVLHQDWLNGKEYKCKVSNKALPAPIEKTISKAKGQPREPQVYTLPPSREEMTKNQVSLTCLVKGFYPSDIAVEWESNGQPENNYKTTPPVLDSDGSFFLYSKLTVDKSRWQQGNVFSCSVMHEALHNHYTQKSLSLSPGK
[1]
  EC50: 0.74 nM
  Maximum mean fluorescence intensity: 54100
[2]
  Maximum mean fluorescence intensity: 468
[3]
  EC50: 0.66 nM
  Maximum mean fluorescence intensity: 9250
[4]
  EC50: 0.61 nM
  Maximum mean fluorescence intensity: 10200
[5]
  EC50, activation activity for Jurkat cell: 0.02 nM
  Maximum fluorescence value: 168000

B2: VHH11 VHH-Fc antibody (Fc fusion)
chain: EVQVVESGGGLAQAGGSLRLSCAVSGITFSSYAMGWYRQDPGKQRELVAAINRFGLTNYADSVKGRFTISRDNAKNTVYLQMTSLKPEDTAVYYCNTGGVYSHPNYYTGTYWGQGTQVTVSSEPKSSDKTHTCPPCPAPEFEGGPSVFLFPPKPKDTLMISRTPEVTCVVVAVSHEDPEVKFNWYVDGVEVHNAKTKPREEQYNSTYRVVSVLTVLHQDWLNGKEYKCKVSNKALPAPIEKTISKAKGQPREPQVYTLPPSREEMTKNQVSLTCLVKGFYPSDIAVEWESNGQPENNYKTTPPVLDSDGSFFLYSKLTVDKSRWQQGNVFSCSVMHEALHNHYTQKSLSLSPGK
[6]
  EC50: 0.41 nM
  Maximum mean fluorescence intensity: 22000
[7]
  Kd: 4930 nM
  koff: 0.193 s⁻¹
  kon: 39100 M⁻¹ s⁻¹

B3: VHH12 VHH-Fc antibody (Fc fusion)
chain: QVQLVESGGGLVQAGGSLRLSCAASGITFSSYAMGWYRQAPGKQRELVAAINRFGLTNYADFVKGRFTISRVNAKNTVYLQMTSLKPEDTAVYYCNTGGVYSHPDYYTGTYWGQGTQVTVSSEPKSSDKTHTCPPCPAPEFEGGPSVFLFPPKPKDTLMISRTPEVTCVVVAVSHEDPEVKFNWYVDGVEVHNAKTKPREEQYNSTYRVVSVLTVLHQDWLNGKEYKCKVSNKALPAPIEKTISKAKGQPREPQVYTLPPSREEMTKNQVSLTCLVKGFYPSDIAVEWESNGQPENNYKTTPPVLDSDGSFFLYSKLTVDKSRWQQGNVFSCSVMHEALHNHYTQKSLSLSPGK
[6]
  EC50: 0.24 nM
  Maximum mean fluorescence intensity: 22200
[1]
  EC50: 0.7 nM
  Maximum mean fluorescence intensity: 60500
[2]
  Maximum mean fluorescence intensity: 87900
[7]
  Kd: 1160 nM
  koff: 0.106 s⁻¹
  kon: 91500 M⁻¹ s⁻¹
[3]
  EC50: 0.24 nM
  Maximum mean fluorescence intensity: 8050
[4]
  EC50: 0.23 nM
  Maximum mean fluorescence intensity: 8730
[5]
  EC50, activation activity for Jurkat cell: 0.01 nM
  Maximum fluorescence value: 142000
[8]
  EC50: 0.35 nM
  Maximum mean fluorescence intensity: 18400
